According to patent USRE48558 (Genentech, dated 2021):

T1: extracellular domain of human CD79b (human, UniProt P40259 29-159)
T1 construct: also called huCD79becd; huCD79b-ecd
T1 sequence: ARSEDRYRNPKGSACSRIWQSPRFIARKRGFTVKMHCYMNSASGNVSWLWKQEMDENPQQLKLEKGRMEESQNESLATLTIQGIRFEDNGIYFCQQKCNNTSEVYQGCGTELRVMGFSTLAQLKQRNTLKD


Target: T1, extracellular domain of human CD79b
Assay: phage selection, Fab on phage, plate-bound huCD79becd

Row | Binder | binding result
1 | huMA79b graft variant SEQ ID NO: 17 (Fab, name in Kabat numbering, V domains shown, Fab on phage; rest as huMA79b graft; also called SPL-2 mutation) VH: EVQLVESGGGLVQPGGSLRLSCAASGYTFSSYWIEWVRQAPGKGLEWVGEILPGGGDTNYNEIFKGRFTISADTSKNTAYLQMNSLRAEDTAVYYCTRRVPVYFDYWGQGTLVTVSS VL: DIQMTQSPSSLSASVGDRVTITCKASKSVDYDGDSFLNWYQQKPGKAPKLLIYAASNLESGVPSRFSGSGSGTDFTLTISSLQPEDFATYYCQQSNEDPLTFGQGTKVEIKR | binds
2 | huMA79b graft variant SEQ ID NO: 18 (Fab, name in Kabat numbering, V domains shown, Fab on phage; rest as huMA79b graft) VH: EVQLVESGGGLVQPGGSLRLSCAASGYTFSSYWIEWVRQAPGKGLEWVGEILPGGGDTNYNEIFKGRFTISADTSKNTAYLQMNSLRAEDTAVYYCTRRVPVYFDYWGQGTLVTVSS VL: DIQMTQSPSSLSASVGDRVTITCKASQSVDYDGDSFLNWYQQKPGKAPKLLIYAASNRESGVPSRFSGSGSGTDFTLTISSLQPEDFATYYCQQSNEDPLTFGQGTKVEIKR | binds
3 | huMA79b graft variant SEQ ID NO: 19 (Fab, name in Kabat numbering, V domains shown, Fab on phage; rest as huMA79b graft) VH: EVQLVESGGGLVQPGGSLRLSCAASGYTFSSYWIEWVRQAPGKGLEWVGEILPGGGDTNYNEIFKGRFTISADTSKNTAYLQMNSLRAEDTAVYYCTRRVPVYFDYWGQGTLVTVSS VL: DIQMTQSPSSLSASVGDRVTITCKASQSVDYDGDSFLNWYQQKPGKAPKLLIYAASNLKSGVPSRFSGSGSGTDFTLTISSLQPEDFATYYCQQSNEDPLTFGQGTKVEIKR | binds
4 | huMA79b graft variant SEQ ID NO: 20 (Fab, name in Kabat numbering, V domains shown, Fab on phage; rest as huMA79b graft; also called SPL-5 mutation) VH: EVQLVESGGGLVQPGGSLRLSCAASGYTFSSYWIEWVRQAPGKGLEWVGEILPGGGDTNYNEIFKGRFTISADTSKNTAYLQMNSLRAEDTAVYYCTRRVPVYFDYWGQGTLVTVSS VL: DIQMTQSPSSLSASVGDRVTITCKASQSVDYDGDSFLNWYQQKPGKAPKLLIYAASNLESGVPSRFSGSGSGTDFTLTISSLQPEDFATYYCQQSNSDPLTFGQGTKVEIKR | binds
5 | huMA79b graft variant SEQ ID NO: 21 (Fab, name in Kabat numbering, V domains shown, Fab on phage; rest as huMA79b graft) VH: EVQLVESGGGLVQPGGSLRLSCAASGYTFSSYWIEWVRQAPGKGLEWVGEILPGGGDTNYNEIFKGRFTISADTSKNTAYLQMNSLRAEDTAVYYCTRRVPVYFDYWGQGTLVTVSS VL: DIQMTQSPSSLSASVGDRVTITCKASQSVDYDGDSFLNWYQQKPGKAPKLLIYAASNLESGVPSRFSGSGSGTDFTLTISSLQPEDFATYYCQQSNKDPLTFGQGTKVEIKR | binds
6 | huMA79b graft variant SEQ ID NO: 23 (Fab, name in Kabat numbering, V domains shown, Fab on phage; rest as huMA79b graft) VH: EVQLVESGGGLVQPGGSLRLSCAASGYTFSSYWIEWVRQAPGKGLEWVGEILPGGGDTNYNEIFKGRFTISADTSKNTAYLQMNSLRAEDTAVYYCTRRVPVYFDYWGQGTLVTVSS VL: DIQMTQSPSSLSASVGDRVTITCKASQSVDYDGDSFLNWYQQKPGKAPKLLIYAASRLESGVPSRFSGSGSGTDFTLTISSLQPEDFATYYCQQSNEDPLTFGQGTKVEIKR | binds
7 | huMA79b graft variant SEQ ID NO: 24 (Fab, name in Kabat numbering, V domains shown, Fab on phage; rest as huMA79b graft) VH: EVQLVESGGGLVQPGGSLRLSCAASGYTFSSYWIEWVRQAPGKGLEWVGEILPGGGDTNYNEIFKGRFTISADTSKNTAYLQMNSLRAEDTAVYYCTRRVPVYFDYWGQGTLVTVSS VL: DIQMTQSPSSLSASVGDRVTITCKASQSVDYDGDSFLNWYQQKPGKAPKLLIYAARKLGNGVPSRFSGSGSGTDFTLTISSLQPEDFATYYCQQSNEDPLTFGQGTKVEIKR | binds
8 | huMA79b graft variant SEQ ID NO: 25 (Fab, name in Kabat numbering, V domains shown, Fab on phage; rest as huMA79b graft) VH: EVQLVESGGGLVQPGGSLRLSCAASGYTFSSYWIEWVRQAPGKGLEWVGEILPGGGDTNYNEIFKGRFTISADTSKNTAYLQMNSLRAEDTAVYYCTRRVPVYFDYWGQGTLVTVSS VL: DIQMTQSPSSLSASVGDRVTITCKASQSVDYDGDSFLNWYQQKPGKAPKLLIYAARKLKRGVPSRFSGSGSGTDFTLTISSLQPEDFATYYCQQSNEDPLTFGQGTKVEIKR | binds
9 | huMA79b graft variant SEQ ID NO: 26 (Fab, name in Kabat numbering, V domains shown, Fab on phage; rest as huMA79b graft; also called L2-29 mutation) VH: EVQLVESGGGLVQPGGSLRLSCAASGYTFSSYWIEWVRQAPGKGLEWVGEILPGGGDTNYNEIFKGRFTISADTSKNTAYLQMNSLRAEDTAVYYCTRRVPVYFDYWGQGTLVTVSS VL: DIQMTQSPSSLSASVGDRVTITCKASQSVDYDGDSFLNWYQQKPGKAPKLLIYAARYLKRGVPSRFSGSGSGTDFTLTISSLQPEDFATYYCQQSNEDPLTFGQGTKVEIKR | binds
10 | huMA79b graft variant SEQ ID NO: 27 (Fab, name in Kabat numbering, V domains shown, Fab on phage; rest as huMA79b graft) VH: EVQLVESGGGLVQPGGSLRLSCAASGYTFSSYWIEWVRQAPGKGLEWVGEILPGGGDTNYNEIFKGRFTISADTSKNTAYLQMNSLRAEDTAVYYCTRRVPVYFDYWGQGTLVTVSS VL: DIQMTQSPSSLSASVGDRVTITCKASQSVDYDGDSFLNWYQQKPGKAPKLLIYAARKLKSGVPSRFSGSGSGTDFTLTISSLQPEDFATYYCQQSNEDPLTFGQGTKVEIKR | binds
11 | huMA79b graft variant SEQ ID NO: 28 (Fab, name in Kabat numbering, V domains shown, Fab on phage; rest as huMA79b graft) VH: EVQLVESGGGLVQPGGSLRLSCAASGYTFSSYWIEWVRQAPGKGLEWVGEILPGGGDTNYNEIFKGRFTISADTSKNTAYLQMNSLRAEDTAVYYCTRRVPVYFDYWGQGTLVTVSS VL: DIQMTQSPSSLSASVGDRVTITCKASQSVDYDGDSFLNWYQQKPGKAPKLLIYAARKLASGVPSRFSGSGSGTDFTLTISSLQPEDFATYYCQQSNEDPLTFGQGTKVEIKR | binds
12 | huMA79b graft variant SEQ ID NO: 29 (Fab, name in Kabat numbering, V domains shown, Fab on phage; rest as huMA79b graft) VH: EVQLVESGGGLVQPGGSLRLSCAASGYTFSSYWIEWVRQAPGKGLEWVGEILPGGGDTNYNEIFKGRFTISADTSKNTAYLQMNSLRAEDTAVYYCTRRVPVYFDYWGQGTLVTVSS VL: DIQMTQSPSSLSASVGDRVTITCKASQSVDYDGDSFLNWYQQKPGKAPKLLIYAAGILARGVPSRFSGSGSGTDFTLTISSLQPEDFATYYCQQSNEDPLTFGQGTKVEIKR | binds
13 | huMA79b graft variant SEQ ID NO: 30 (Fab, name in Kabat numbering, V domains shown, Fab on phage; rest as huMA79b graft) VH: EVQLVESGGGLVQPGGSLRLSCAASGYTFSSYWIEWVRQAPGKGLEWVGEILPGGGDTNYNEIFKGRFTISADTSKNTAYLQMNSLRAEDTAVYYCTRRVPVYFDYWGQGTLVTVSS VL: DIQMTQSPSSLSASVGDRVTITCKASQSVDYDGDSFLNWYQQKPGKAPKLLIYAARKLRSGVPSRFSGSGSGTDFTLTISSLQPEDFATYYCQQSNEDPLTFGQGTKVEIKR | binds
14 | huMA79b graft variant SEQ ID NO: 31 (Fab, name in Kabat numbering, V domains shown, Fab on phage; rest as huMA79b graft; also called L2-38 mutation) VH: EVQLVESGGGLVQPGGSLRLSCAASGYTFSSYWIEWVRQAPGKGLEWVGEILPGGGDTNYNEIFKGRFTISADTSKNTAYLQMNSLRAEDTAVYYCTRRVPVYFDYWGQGTLVTVSS VL: DIQMTQSPSSLSASVGDRVTITCKASQSVDYDGDSFLNWYQQKPGKAPKLLIYAARKLGSGVPSRFSGSGSGTDFTLTISSLQPEDFATYYCQQSNEDPLTFGQGTKVEIKR | binds
15 | huMA79b graft variant SEQ ID NO: 32 (Fab, name in Kabat numbering, V domains shown, Fab on phage; rest as huMA79b graft) VH: EVQLVESGGGLVQPGGSLRLSCAASGYTFSSYWIEWVRQAPGKGLEWVGEILPGGGDTNYNEIFKGRFTISADTSKNTAYLQMNSLRAEDTAVYYCTRRVPVYFDYWGQGTLVTVSS VL: DIQMTQSPSSLSASVGDRVTITCKASQSVDYDGDSFLNWYQQKPGKAPKLLIYAARHLKRGVPSRFSGSGSGTDFTLTISSLQPEDFATYYCQQSNEDPLTFGQGTKVEIKR | binds
